Results from patent publication US20170212130A1 (ROCKEFELLER UNIVERSITY, published 2017).
Read-outs that look alike come from different tables or passages of the source.

Assays:
[1] = biological target: T1, GFP-His6 (eGFP) (Aequorea victoria, UniProt P42212 2-238 = GFP); experiment: SPR, GFP immobilized, Langmuir fit; unit inferred
T1 construct: SPR and bead assays speak only of recombinant GFP or eGFP; also called recombinant GFP; A. victoria (Av) GFP

[2] = biological target: T1, GFP-His6 (eGFP); experiment: SPR, GFP immobilized
[3] = biological target: T1, GFP-His6 (eGFP); experiment: SPR, GFP immobilized, Langmuir fit; no unit printed [continued]
[4] = biological target: T2, DsRed (Discosoma sp., UniProt Q9U6Y8 1-225); experiment: bead binding: nanobody-Dynabeads + fluorescent protein, eluate on SDS-PAGE
T2 construct: Recombinant fluorescent protein; construct not described; also called standard DsRed; DsRed from Discosoma (Ds)
T2 sequence (Q9U6Y8 whole entry): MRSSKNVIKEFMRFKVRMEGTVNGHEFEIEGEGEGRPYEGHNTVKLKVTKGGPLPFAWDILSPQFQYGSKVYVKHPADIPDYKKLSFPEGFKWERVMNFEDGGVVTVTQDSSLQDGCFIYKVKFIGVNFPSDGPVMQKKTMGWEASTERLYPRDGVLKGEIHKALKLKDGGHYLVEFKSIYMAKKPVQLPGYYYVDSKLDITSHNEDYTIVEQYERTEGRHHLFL

[5] = biological target: T3, mCherry (Discosoma); experiment: label under gel lane; legend: in vitro Kd for mCherry by SPR
T3 construct: Immunogen is mCherry-His6; SPR says recombinant mCherry; also called recombinant mCherry-His6; Discosoma mCherry

[6] = biological target: T3, mCherry; experiment: SPR, mCherry immobilized
[7] = biological target: T2, DsRed; experiment: bead binding: nanobody-Dynabeads + fluorescent protein, eluate on SDS-PAGE; remark: listed apart in the source
[8] = biological target: T1, GFP-His6 (eGFP); experiment: as above
[9] = biological target: T3, mCherry; experiment: SPR, mCherry immobilized, Langmuir fit; unit inferred
[10] = biological target: T1, GFP-His6 (eGFP); experiment: label under gel lane; legend: in vitro Kd for GFP by SPR
[11] = biological target: T1, GFP-His6 (eGFP); experiment: SPR, GFP immobilized, Langmuir fit; no unit printed [continued]; remark: listed apart in the source
[12] = biological target: T1, GFP-His6 (eGFP); experiment: bead binding assay (footnote 1)

B1: LaG-6 (VHH)
VHH: QVQLVESGGGLVQAGGSLRLSCAASGRTFSTSAMAWFRQAPGKEREFAAGITWISSSTYYTDSVKGRFTISRDNAKNTVYLQMNSLKPEDTAVYYCAAKSEGYFGFPRVENEYPYWGQGTQVTV
B1 showed a Kd [1] of 310 nM and a Kd [2] of 310 nM.

B2: LaG-10 (VHH)
VHH: QVQLVESGGGLVQAGDSLQLSCAFSGGTFSTYAMGWFRQAPGKEREFVGGISRSGATTNYEDSVKGRFTISKDNTKNTVYLQLNSLKPEDTAVYYCAARNNILPVTTIDKYEYWGQGTQVTV
In the case of B2, the Kd [1] is reported as 97 nM and the Kd [2] is reported as 97 nM.

B3: LaG-27 (VHH)
VHH: DVQLVESGGGLVQAGGSLRLSCTASGLTISTYNIGWFRQAPGKEREFVGIIIRNGDTTYYADSVKGRFTISRDNAKNTVYLQMNSVKPADAAVYSCGATVRAGAAAEQYNSYIFRGQGTQVTV
In the case of B3, the Kd [3] is reported as 9.5 nM, the Kd [2] is reported as 9.5 nM and the binding result [4] is reported as “no binding”.

B4: LaM-6 (VHH)
VHH: QVQLVESGGGLVQAGGSLRLSCVASGSAPSFFAMAWYRQSPGNERELVAALSSLGSTNYADSVKGRFTISMDNAKNTVYLQMNNVNAEDTAVYYCAAGDFHSCYARKSCDYWGQGTQVTVS
B4 was tested, and the Kd [5] was 0.26 nM, the Kd [6] was 0.26 nM and the binding result [7] was “no binding”. The binding result [8] was “no binding” and the Kd [9] was 0.26 nM.

B5: LaG-26 (VHH)
VHH: QVQLVESGGGLVQAGASMRLSCAASGITFSLYHWVWFRQAAGREHEFVAGIIRSGGETLSADSVKDRFIISRDDAKNTLYLQMNMLQPEDTATYYCAATHRADWYSSAFREYIFRGQGTQVTVS
For B5, the Kd [3] was 2.6 nM, the Kd [2] was 2.6 nM and the binding result [4] was “no binding”.

B6: LaG-42 (VHH)
VHH: DVQLVESGGGLVQAGDSLRLSCAASGPTGAMAWFHQGLGKEREFVGGISPSGDNIYYADSVKGRFTIDRDNAKNTVSLQMNSLKPEDMGVYYCAARRRVTLFTSRTDYEFWGRGTQVTVS
In the case of B6, the Kd [2] is reported as 600 nM.

B7: LaG-37 (VHH)
VHH: QVQFVESGGGTVQDGDFLRLSCTASGDTFSNYHAGWFRQPPGREREFVAAISWTGEGTLYADSVKGQFTISRDNAKNAMYLQMNRLKPEDTAVYYCAAARSVGFTWRSSKSNDYAYWGQGTQVTV
B7 was tested, and the Kd [10] was 25 nM, the Kd [3] was 24 nM and the Kd [2] was 24 nM.

B8: LaG-17 (VHH)
VHH: DVQLVESGGGLVQAGGSLRLSCAASGRTISMAAMSWFRQAPGKEREFVAGISRSAGSAVHADSVKGRFTISRDNTKNTLYLQMNSLKAEDTAVYYCAVRTSGFFGSIPRTGTAFDYWGQGTQVTVS
For B8, the Kd [1] was 48 nM and the binding result [4] was “no binding”.

B9: LaM-1 (VHH)
VHH: QVQLVESGGGLVQAGDSLRLSCAASGRTFENYAMGWFRQAPGKEREFVGAVSWGGGRTYYADNVKGRFTISRDNAKKNTVYLQMNSLKPEDTAVYYCAAKSVLTIATMRVPDEYNYWGQGTQVTVS
In the case of B9, the Kd [5] is reported as 22 nM, the Kd [6] is reported as 22 nM and the binding result [7] is reported as “no binding”. The binding result [8] was “no binding” and the Kd [9] was 22 nM.

B10: LaG-29 (VHH)
VHH: QVQLVESGGGLVQAGAALRLSCAASGGTFSFYNMGWFRQAPGKEREFVVSISRSGGGTAYADSVKGRFTISRDNAKNTAYLQMNSLKPEDTAVYYCAAGLRDWGREGEPHYWGQGTQVTVS
For B10, the Kd [3] was 110 nM and the Kd [2] was 110 nM.

B11: LaG-43 (VHH)
VHH: DVQLVESGGGLVQPGGSLRLSCEASGGAFSTVAMGWFRQAPGKEREFVGAITWTAGSTYYADSAKGRFTISRDNAKNTVHLQMNSLKPEDTAVYYCAQRVRGFFGPLRTTPSWYEYWGQGTQVTVS
B11 gave a Kd [10] of 13 nM, a Kd [11] of 11 nM and a Kd [2] of 11 nM.

B12: LaM-3 (VHH)
VHH: QVQLVQSGGGLVQAGGSLRLSCAASGRTFSDIAVGWFRQTPGKEREFVAAISWSGLIINYGDSVEDRFTISRDNAKSAVYLQMNSLKPEDTAVYYCAARIGMNYYYAREIEYPYWGQGTQVTVS
In the case of B12, the Kd [5] is reported as 1.9 nM, the Kd [6] is reported as 1.9 nM and the binding result [8] is reported as “no binding”. For the same binder, the Kd [9] was 1.9 nM.

B13: LaG-30 (VHH)
VHH: QVQLVESGGGLVQAGGSLRLSCAASGRTFSTSAMGWFRQAPGREREFVAAITWTVGNTIYGDSMKGRFTISRDRTKNTVDLQMDSLKPEDTAVYYCTARSRGFVLSDLRSVDSFDYKGQGTQVTVS
B13 was tested, and the Kd [3] was 0.5 nM, the Kd [2] was 0.5 nM and the binding result [4] was “no binding”.

B14: LaG-35 (VHH)
VHH: DVQLVESGGGLVQAGGSLRLSCTVSGRTFSNYAMGWFRQAPGKEREFVAGISWTGGHTLYTDSVKGRFTISRDNAKNTVYLQMNSLKPEDTALYYCAADRAADFFAQRDEYDYWGQGTQVTVS
With B14 the Kd [10] was 24 nM and the Kd [12] was 23.5 nM.

B15: LaG-21 (VHH)
VHH: QVQLVESGGGLVQAGGSLRLSCAASGPTGAMAWFRQAPGMEREFVGGISGSETDTYYADFVKGRLTVDRDNVKNTVDLQMNSLKPEDTAVYYCAARRRVTLFTSRADYDFWGQGTQVTVS
For B15, the Kd [2] was 7 nM and the binding result [4] was “no binding”.

B16: LaG-19 (VHH)
VHH: QVQLVESGGGLVQAGGSLRLSCAASGPTGAMAWFRQAPGKEREFVGGISRSGTDTYYVDSVKGRFTIDRDNAKNTVYLQMNSLKPEDTAVYYCAARRSQILFTSRTDYEFWGQGTQVTVS
For B16, the Kd [12] was 24.6 nM and the binding result [4] was “no binding”.

B17: LaG-11 (VHH)
VHH: DVQLVESGGRSVRAGDSLRLSCLASGGTFSLYAMGWFRQAPGKEREFVAAVTWSGGSTYYTDSVKGRFSISRDNAKNTVYLQMNSLKPEDTAVYYCAVRTSGFFGSIPVTERAFDYWGQGTQVTVS
Binder B17 has a Kd [10] of 22900 nM and a Kd [12] of 22900 nM.

B18: LaG41-LaG2 (G4S) (bispecific antibody)
single-chain fusion of two VHH: MADVQLVESGGGLVQAGGSLRLSCAASGPTGAMAWFRQAPGKEREFVGGISGSETDTYYVDSVKGRFTVDRDNVKNTVYLQMNSLKPEDTAVYYCAARRRITLFTSRTDYDFWGRGTQVTVGGGGSGGGGSGGGGSMAQVQLVESGGGLVQAGGSLRLSCAASGRTFSNYAMGWFRQAPGKEREFVAAISWTGVSTYYADSVKGRFTISRDNDKNTVYVQMNSLIPEDTAIYYCAAVRARSFSDTYSRVNEYDYWGQGTQVTV
notes: Member of the group m24; also called LaG41-LaG2 G4S Dimer
Binder B18 has a Kd [11] of 0.15 nM and a Kd [2] of 0.15 nM.

B19: LaG16-LaG2 (3xFLAG) (other)
single-chain fusion of two VHH (part 1 of 2): MAQVQLVESGGRLVQAGDSLRLSCAASGRTFSTSAMAWFRQAPGREREFVAAITWTVGNTILGDSVKGRFTISRDRAKNTVDLQMDNLEPEDTAVYYCSARSRGYVLSVLRSVDSYDYWGQGTQVTVS
single-chain fusion of two VHH (part 2 of 2): MAQVQLVESGGGLVQAGGSLRLSCAASGRTFSNYAMGWFRQAPGKEREFVAAISWTGVSTYYADSVKGRFTISRDNDKNTVYVQMNSLIPEDTAIYYCAAVRARSFSDTYSRVNEYDYWGQGTQVTV
notes: Member of the group m24; also called LaG16-LaG2 3xFLAG Dimer
In the case of B19, the Kd [11] is reported as 0.27 nM and the Kd [2] is reported as 0.268 nM.

B20: LaM-8 (VHH)
VHH: QVQLVESGGGLVQAGGSLRLSCAVSGRPFSEYNLGWFRQAPGKEREFVARIRSSGTTVYTDSVKGRFSASRDNAKNMGYLQLNSLEPEDTAVYYCAMSRVDTDSPAFYDYWGQGTQVTVST
In the case of B20, the Kd [5] is reported as 63 nM, the Kd [6] is reported as 63 nM and the binding result [7] is reported as “no binding”. For the same binder, the binding result [8] was “no binding” and the Kd [9] was 63 nM.

B21: LaG-3 (VHH)
VHH: QVQLVESGGGLVQAGGSLRVSCAASGRTYSDYAMGWFRQAPGKERDFVAGISGSGGDTYYADSVKGRFTISRDNAKNTMYLQMNSLKPEDTAVYFCAARTGTVLFTSRVDYRYWGQGTQVTV
For B21, the Kd [1] was 25 nM, the Kd [2] was 25 nM and the binding result [4] was “no binding”.

B22: LaG-14 (VHH)
VHH: QVQLVESGGGLVQAGGSLRLSCAASGRTYSISAMGWFRQAPGKEREFVAGISRSGGTTYYADPVKGRFTISRDNAKNTVYLQMNSLKPEDTAVYYCAARARGWTTFPAREIEYDYWGQGTQVTV
In the case of B22, the Kd [1] is reported as 1.9 nM, the Kd [2] is reported as 1.9 nM and the binding result [4] is reported as “no binding”.

B23: LaG-16 (VHH)
VHH: QVQLVESGGRLVQAGDSLRLSCAASGRTFSTSAMAWFRQAPGREREFVAAITWTVGNTILGDSVKGRFTISRDRAKNTVDLQMDNLEPEDTAVYYCSARSRGYVLSVLRSVDSYDYWGQGTQVTVS
modifications: Conjugated to Alexa Fluor 568 (succinimidyl ester, on amines) in the microscopy result. The letters are unchanged.
notes: Conjugated to Alexa Fluor 568 for microscopy
For B23, the Kd [1] was 0.69 nM, the Kd [2] was 0.7 nM and the binding result [4] was “no binding”.
